This is an account of results in patent US7122187 (IDEC PHARMACEUTICALS, dated 2006).

The target in the assay is T1, human gp39 (cell surface) (human, UniProt P29965 1-261).
T1 construct: whole, on cells; this was read as mgp39-CHO (membrane gp39); also called CD40 ligand; CD40L
T1 sequence (looked up): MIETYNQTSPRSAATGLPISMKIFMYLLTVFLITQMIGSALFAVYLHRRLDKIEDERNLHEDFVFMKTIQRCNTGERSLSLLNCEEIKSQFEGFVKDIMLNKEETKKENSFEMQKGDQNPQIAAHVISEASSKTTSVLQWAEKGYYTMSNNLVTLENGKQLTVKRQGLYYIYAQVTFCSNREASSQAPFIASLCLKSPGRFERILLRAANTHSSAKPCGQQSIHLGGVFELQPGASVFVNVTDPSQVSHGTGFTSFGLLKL
The assay can be described thus: Scatchard analysis, 125I-labelled antibody competed with unlabelled antibody on gp39-CHO cells. The method, then:
^125I-labeled antibody was mixed and incubated with non-labeled antibody in a dilution series. Based on the total amount of bound antibody and the amount of free antibody, a Scatchard plot was generated from a […] graph. The total antibody concentration was based on a standard size of 75 kD for one active site.
The Kd was calculated by generating a "best fit" line. The inverse of the slope of the curve is the Kd. The correlation coefficient, r^2, was also computed.

B1: humanized 24-31 (version 1) (antibody, V domains shown)
VH: EVQLQESGPGLVKPSETLSLTCTVSGDSITNGFWIWIRKPPGNKLEYMGYISYSGSTYYNPSLKSRISISRDTSKNQFSLKLSSVTAADTGVYYCACRSYGRTPYYFDFWGQGTTLTVSS
VL: DIVMTQSPSFLSASVGDRVTITCKASQNVITAVAWYQQKPGKSPKLLIYSASNRYTGVPDRFSGSGSGTDFTLTISSLQPEDFADYFCQQYNSYPYTFGGGTKLEIK
notes: also called h24-31; humanized Version 1
Turning to B1, the Kd amounted to 5.6 nM.

B2: murine antibody 24-31 (antibody, mouse IgG1, V domains shown)
VH: EVQLQESGPSLVKPSQTLSLTCSVTGDSITNGFWIWIRKFPGNKLEYMGYISYSGSTYYNPSLKSRISITRDTSQNQFYLQLNSVTTEDTGTYYCACRSYGRTPYYFDFWGQGTTLTVSS
VL: DIVMTQSQKFMSTSVGDRVSITCKASQNVITAVAWYQQKPGQSPKLLIYSASNRYTGVPDRFSGSGSGTDFTLTISNMQSEDLADYFCQQYNSYPYTFGGGTKLEIK
notes: Murine IgG1 from hybridoma; also called anti-gp39 24-31 mAb; murine 24-31
Take B2: binding was put at a Kd of 8.51 nM.

B3: humanized 24-31 (version 2) (antibody, V domains shown)
VH: EVQLQESGPGLVKPSETLSLTCTVSGDSITNGFWIWIRKPPGNKLEYMGYISYSGSTYYNPSLKSRISISRDTSKNQFSLKLSSVTAADTGVYYCACRSYGRTPYYFDFWGQGTTLTVSS
VL: DIVMTQSPDSLAVSLGERATINCKASQNVITAVAWYQQKPGQSPKLLIYSASNRYTGVPDRFSGSGSGTDFTLTISSLQAEDVADYFCQQYNSYPYTFGGGTKLEIK
notes: It was expressed from N5KG1 with human kappa and gamma 1 constant regions; also called humanized Version 2; #2 VL with #1 VH
B3 gave a Kd of 14 nM. This Kd is about 1.6-fold higher than that of the molecule before.

For orientation: Kd means a measure of binding affinity in units of concentration.
